Assay results reported in patent publication US20240238380A1, “COMPOSITION FOR COMBINATION THERAPY COMPRISING GROWTH DIFFERENTIATION FACTOR-15 VARIANT AND GLUCAGON-LIKE PEPTIDE-1 RECEPTOR AGONIST” (YUHAN CORPORATION, priority 2021, published 2024).
Marks after values point to notes of the source that are not given here.

How the values were obtained:
[1] = target: T1, GFRAL/RET/SRE-luc-overexpressing HEK293 cell line (Homo sapiens, UniProt Q6UXV0); experiment: Functional activity of long-acting GDF15 fusion protein (Bright-Glo luciferase assay); type: cell-based; settings: for EC50: luciferase RLU, 4 hours reaction; for Emax (%): relative to FM9-6+Fc_hole (Emax 100%); for EC50 values (in words) / Emax values (in words): compared with the other linkers
T1 construct: expressed in transfected cells; host or cells: HEK293 (human embryonic kidney 293), overexpressing GFRAL, RET and an SRE-luciferase reporter
Procedure: Two variants (FM9+Fc_hole, FM11+Fc_hole) were compared and evaluated for GDF15 activity depending on the linker type and length. The GDF15 activity was measured using a Bright-Glo™ luciferase assay kit (Promega) and a GFRAL/RET/SRE-luc-overexpressing HEK293 cell line (Human embryonic kidney 293).
Specifically, 1×10^5 GFRAL/RET/SRE-luc-overexpressing HEK293 cells were dispended in DMEM containing 10% FBS in each well of a 96-well-plate, followed by culture at 37° C. and 5% CO2 for 24 hours. After 24 hours, each medium of the 96-well plate was replaced with 50 μl of a serum-free medium, followed by culture at 37° C. and 5% CO2 for 4 hours.
In addition, the long-acting GDF15 fusion protein produced in Example 1 was prepared by 3-fold serial dilution from a concentration of 2000 nM using a serum-free medium. Thereafter, 50 μl of the long-acting GDF15 fusion protein dilution was added to each well containing 50 μl of the replaced serum-free medium and the GERAL/RET/SRE-luc cell line so that the actual concentration thereof was serially diluted 3-fold from 1000 nM, followed by reaction at 37° C. and 5% CO2 for 4 hours. After 4 hours, each well was treated with 100 μl of a Bright-Glo™ solution prepared by adding a Bright-Glo™ buffer to a Bright-Glo™ substrate, followed by reaction at room temperature for 1 minute.
Thereafter, the reaction value (relative light units, RLU) was measured using a microplate reader (Perkin Elmer, Wallac Victor X5) capable of measuring luminescence. The results thereof are shown in Table 2 below and in FIGS. 1 and 2. Here, the functional activity of the long-acting GDF15 fusion protein depending on the GDF15 sequence, linker type, and length was compared based on the in-vitro GDF15 activity of FM9-6+Fc_hole (Emax 100%).

[2] = Inhibitory effect on gastric emptying (acetaminophen exposure) in normal rats (Example 8); type: in vivo; settings: rats, 30 mg/kg oral, positive control
Procedure: Therefore, this example was performed to investigate the inhibitory effect on gastric emptying when the novel long-acting GDF15 fusion protein was administered at the doses equal to the effective dose, higher than the maximum effective dose, or in combination with a GLP-1 receptor agonist to rats. 6-week-old male SD rats (Orient Bio, Republic of Korea) were purchased from Hallym Lab. Animal Inc., Republic of Korea. Animals were acclimated for 7 days. On the day of drug administration, the rats were grouped based on the average body weight of individual rats (n=5 per group) and fasted for at least 6 hours before oral administration of acetaminophen. Then, 0.1, 1, and 10 nmol/kg of FM9-6+Fc_hole, 10 nmol/kg of semaglutide (long-acting GLP-1 derivative, SEQ ID NO: 114), and combination of FM9-6+Fc_hole and semaglutide (1+10 nmol/kg) were subcutaneously administered. The semaglutide was Ozempic® (semaglutide) from Novo NorDisk. As a negative control drug, D-PBS (normal vehicle) was subcutaneously administered, and as a positive control drug, 30 mg/kg of loperamide was orally administered 45 minutes before acetaminophen administration. On 3, 24 and 72 hours after a single dose of the test articles, acetaminophen was orally administered at 100 mg/kg to rats, and blood samples were collected before and at 30, 60, 90, 120 and 150 minutes after acetaminophen administration. The plasma concentration of acetaminophen was analyzed, and the pharmacokinetic profiles and the systemic exposures of acetaminophen were compared to evaluate the inhibitory effect on gastric emptying among the groups.

[3] = Pharmacokinetics of long-acting GDF15 fusion protein (dimer) in C57BL/6N mice; type: in vivo; settings: 1 mg/kg subcutaneous; for Cmax: active GDF15 in serum by ELISA
Procedure: 6-week-old male C57BL/6N mice (Orient Bio, Republic of Korea) were purchased from Hallym Lab. Animal Inc., Republic of Korea. Animals were acclimated for 7 days, and on the day of drug administration, the mice were grouped based on the average body weight of individual mice (n=3 per blood sampling time per group). Then, FM9-4+Fc_hole, FM9-6+Fc_hole, FM11-4+Fc_hole, and FM11-6+Fc_hole were subcutaneously administered at 1 mg/kg to each group, and blood samples were collected at 4, 24, 48, 72, 96, 120, 168, and 240 hours after administration. Determination of active GDF15 in serum was achieved by enzyme-linked immunosorbent assay (ELISA), and pharmacokinetic parameters of each long-acting GDF15 fusion protein (dimer) are shown in Table 3 below.

T1 sequence (Q6UXV0 19-394, species assumed): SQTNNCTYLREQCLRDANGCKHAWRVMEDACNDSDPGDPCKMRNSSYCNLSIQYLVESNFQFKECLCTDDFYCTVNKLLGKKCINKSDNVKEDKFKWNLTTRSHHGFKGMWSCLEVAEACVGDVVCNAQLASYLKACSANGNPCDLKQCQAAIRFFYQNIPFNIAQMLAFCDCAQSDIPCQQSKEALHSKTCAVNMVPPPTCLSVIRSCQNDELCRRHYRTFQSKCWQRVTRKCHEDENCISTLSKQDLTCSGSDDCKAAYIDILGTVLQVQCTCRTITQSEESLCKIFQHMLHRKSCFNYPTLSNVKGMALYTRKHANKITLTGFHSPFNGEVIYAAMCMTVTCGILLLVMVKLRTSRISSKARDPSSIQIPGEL
T1 sequence (P07949 29-1114 partner, species assumed): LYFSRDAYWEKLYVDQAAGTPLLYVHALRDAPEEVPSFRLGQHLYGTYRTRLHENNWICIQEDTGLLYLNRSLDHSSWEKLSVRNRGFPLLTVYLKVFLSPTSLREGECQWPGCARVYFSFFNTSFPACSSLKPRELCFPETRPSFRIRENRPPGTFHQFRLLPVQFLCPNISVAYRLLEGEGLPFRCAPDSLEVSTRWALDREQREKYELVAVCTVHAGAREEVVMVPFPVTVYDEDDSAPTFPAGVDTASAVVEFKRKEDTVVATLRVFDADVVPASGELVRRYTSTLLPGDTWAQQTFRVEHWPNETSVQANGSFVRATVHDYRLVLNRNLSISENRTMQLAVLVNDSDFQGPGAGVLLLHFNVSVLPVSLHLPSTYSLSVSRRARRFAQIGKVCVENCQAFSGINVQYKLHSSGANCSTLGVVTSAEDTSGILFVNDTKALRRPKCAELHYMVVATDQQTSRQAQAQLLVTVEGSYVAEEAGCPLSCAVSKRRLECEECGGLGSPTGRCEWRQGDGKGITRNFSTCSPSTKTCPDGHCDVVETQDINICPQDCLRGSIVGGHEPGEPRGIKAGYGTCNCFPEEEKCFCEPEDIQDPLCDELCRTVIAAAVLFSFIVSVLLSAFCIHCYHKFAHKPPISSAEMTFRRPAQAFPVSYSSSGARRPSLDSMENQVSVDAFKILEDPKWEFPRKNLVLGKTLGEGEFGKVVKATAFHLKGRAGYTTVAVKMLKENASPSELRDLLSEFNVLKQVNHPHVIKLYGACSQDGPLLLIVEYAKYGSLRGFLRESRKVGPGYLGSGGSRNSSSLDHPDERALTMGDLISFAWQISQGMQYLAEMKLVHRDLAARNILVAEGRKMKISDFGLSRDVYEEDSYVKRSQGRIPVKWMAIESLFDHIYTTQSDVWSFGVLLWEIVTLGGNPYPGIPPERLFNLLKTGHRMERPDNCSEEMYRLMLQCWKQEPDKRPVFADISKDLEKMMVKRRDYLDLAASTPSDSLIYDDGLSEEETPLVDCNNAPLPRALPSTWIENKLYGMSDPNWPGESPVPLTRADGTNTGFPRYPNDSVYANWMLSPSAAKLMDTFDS

## FM11-2 + Fc_hole: long-acting GDF15 fusion protein (dimer): GDF15 ΔN3, G4N, D5S, H6T, S64R, IgG1 Fc_knob/Fc_hole, linker GS(G4S)5; SEQ ID NOs: 105 and 47
[1]
  EC50: 7.7 nM
  Emax (%): 79.4%

## CN(C)C(=O)C(CCN1CCC(O)(c2ccc(Cl)cc2)CC1)(c1ccccc1)c1ccccc1 [Loperamide, loperamide, reference compound]
[2]; 3 hr
  AUClast of acetaminophen (μg · min/mL), 3 hr: 1565.13 µg·min/mL
[2]; 24 hr
  AUClast of acetaminophen (μg · min/mL), 24 hr: 761.04** μg · min/mL
[2]; 72 hr
  AUClast of acetaminophen (μg · min/mL), 72 hr: 996.36*** μg · min/mL

## FM9-4 + Fc_hole: long-acting GDF15 fusion protein (dimer): GDF15 ΔN2, S64R, IgG1 Fc_knob/Fc_hole, linker GS(EEEA)6; SEQ ID NOs: 101 and 47
[1]
  EC50 values (in words): relatively low EC50 values
  Emax values (in words): high Emax values
[3]
  AUClast: 750.49702 µg·h/mL
  CL/F: 1.30 mL/h/kg
  T1/2,app: 36.84 h
  Tmax: 24 h
  Cmax: 8421.37 ng/mL

## FM11-6 + Fc_hole: long-acting GDF15 fusion protein (dimer): GDF15 ΔN3, G4N, D5S, H6T, S64R, IgG1 Fc_knob/Fc_hole, linker GS(EAAAK)5; SEQ ID NOs: 109 and 47
[3]
  AUClast: 116.43394 µg·h/mL
  CL/F: 8.43 mL/h/kg
  T1/2,app: 25.84 h
  Tmax: 24 h
  Cmax: 1547.77 ng/mL

## FM11-4 + Fc_hole: long-acting GDF15 fusion protein (dimer): GDF15 ΔN3, G4N, D5S, H6T, S64R, IgG1 Fc_knob/Fc_hole, linker GS(EEEA)6; SEQ ID NOs: 107 and 47
[1]
  EC50 values (in words): relatively low EC50 values
  Emax values (in words): high Emax values
[3]
  AUClast: 690.21308 µg·h/mL
  CL/F: 1.41 mL/h/kg
  T1/2,app: 40.61 h
  Tmax: 24 h
  Cmax: 7200.02 ng/mL

## FM9-3 + Fc_hole: long-acting GDF15 fusion protein (dimer): GDF15 ΔN2, S64R, IgG1 Fc_knob/Fc_hole, linker GS(G4S)7; SEQ ID NOs: 100 and 47
[1]
  EC50: 9.3 nM
  Emax (%): 95.6%

## FM9-2 + Fc_hole: long-acting GDF15 fusion protein (dimer): GDF15 ΔN2, S64R, IgG1 Fc_knob/Fc_hole, linker GS(G4S)5; SEQ ID NOs: 99 and 47
[1]
  EC50: 9.5 nM
  Emax (%): 110.8%

## FM11-3 + Fc_hole: long-acting GDF15 fusion protein (dimer): GDF15 ΔN3, G4N, D5S, H6T, S64R, IgG1 Fc_knob/Fc_hole, linker GS(G4S)7; SEQ ID NOs: 106 and 47
[1]
  EC50: 7.8 nM
  Emax (%): 81.0%
